Assay results from the DeepSol protein solubility set.

test: soluble on expression in E. coli; label from the status in PepcDB or PDB records

Row | Sequence | soluble on expression in E. coli
1 | MATQARLPLPVGSTTSVSVVIPAKNVAAYVGETLASALAQGEVTEVIVVDDGSTDNTIAIVRAIRDPRLRLMTNDSAGVSAARNLGARHASGEWLLFLDADDRLRPGAVAALLAAARGAPRAVLVYGDYNTIDSEGRQVGRRDLLKGRRKPSGDVLTRLAASNFIVNGGIALARAEAFRAIGGFDTSLRYCEDWHCWCRLAAIGEFEFAPKLLLDYRLHTANTMNAAVRTPQDFFPAIARVFDDGLILARLPEGTAARLRQAAEIHLVTYSAMQAVRFGRYRQAFTYLGMVGRRSLKSLPRSALRVALACFGILEHHHHHH | not soluble
2 | MGSDKIHHHHHHMKTQVLYGKSEIEINVPDDSTIIEPQNIDAIQDYESTIKNVLRNPTNSKPLKEMVNSNDIVSIVISDITRPTPNHILVPLLIEELNHVPRENFVIINGTGTHRDQTRDELIQMLGEDIVNSVKIVHNHCSEKESLAKVGHSQYGCDVYLNKAYVESDFKIVTGFIEPHFFAGFSGGPKGIMPGIAGLETIQTFHNAKMIGDPRSTWGNLEDNPVQDMAREVNRMCKPDFLLNVALNKSKEITAAFAGEIFDTHKEGCAYVKDHAMFKCDQRFDIVIASNSGYPLDQNLYQTVKGMSAASKVVKKDGHIIMVSECADGFPDHGKFAEIFKMADTPQGILELIHNPNFKEVDQWQVQKQASIQTFANVHVYSELTDQQLKDSMLIPTSNIEHTIQELEHRYGRKLTIGVMPQGPLTIPYVEDKE | not soluble
3 | MSKPEFIARQGRKPTGWLGHIVARVMARETRPENDRALSFLDLADGDSLIDIGCGHGETLFQADRIVRLSGSVGVDFSEVMLKRARARNRDAVWDTRMAFHCADTAALPFPDKRFGKALSVHTIYFWPNPAAHLAEAFRVLRRGGRFLFCYRSTADRRAVEEFPDTVYRFPSVQEVEEKLKLVGFLGPETTTEDIKGRLTHWSIAEKPLEHHHHHH | soluble
4 | MSLSTERTERVRPQRVEQNLPPLSWGGSGVQTAYWVQEAVQPGDSLADVLARSGMARDEIARITEKYGGEADLRHLRADQSVHVLVGGDGGAREVQFFTDEDGERNLVALEKKGGIWRRSASEADMKVLPTLRSVVVKTSARGSLARAEVPVEIRESLSGIFAGRFSLDGLKEGDAVRLMYDSLYFHGQQVAAGDILAAEVVKGGTRHQAFYYRSDKEGGGGGNYYDEDGKVLQEKGGFNIEPLVYTRISSPFGYRMHPILHTWRLHTGIDYAAPQGTPVRASADGVITFKGRKGGYGNAVMIRHANGVETLYAHLSAFSQAEGNVRGGEVIGFVGSTGRSTGPHLHYEARINGQPVNPVSVALPTPELTQADKAAFAAQKQKADALLARLRGIPVTVSQSDEGHHHHHH | soluble
5 | MGSDKIHHHHHHMEVTRTDKAVTLTWNKEEVSEGTVVFVSSSPKLEANSEPVFKVTNDVDHYSYDTKDIPIYFFLETPNGYYAIVSERILPLESVFNFRDMGGYASKNGKHVKWGKLYRSSNLVNINENDAALLQKLHIKWICDLRSSSEVKAQPTPAIEGILNKHIPIGTAKNEETKLPVTNDTTIYEPLMGESYRVFVQSVEGFREIFTEVLEDAKAGLPFVFHCTAGKDRTGVLGALLLTLLDVPEKTIFDDYAITNRYQDDILQEMGGIVSLFSSGTEKIDLETFRPMAEARPEYLEIAFDEMKKQYGSVANYLEKGIGITATEKAAFQKEMLE | not soluble
6 | MSLKTGRTNTIVVLVPNLINPFFMRIIGGIEQAAQERGFTVLLCDTQGESKRESDYASMVLTNRADGLIQLDHSFPFTEDDAKLAETIPMVSVCERIHSDKKYPVVALDNYAASRALAHHLVSYGHTKFAVIVGQVVSQIHKDRLYGLRSVLAEEDIEFDEDMIVGQSYSIENGIEGMRQLLEKPNRPSAVICFNDDIAIGAMHEIHRQGLRVPEDISVVGFDNVKVAAFMNPPLTTIDQPAYEMGRRGMEILSDVINGVPLTRSSEMLPFQLLERESSGEGHHHHHH | not soluble
7 | MGSDKIHHHHHHMEQATRTIYSEYAAYPETQGIIAVEKRQPRDSLTDQFDVLLLVITRDPSVEWTVKHYRLNTLRVSLHLVHEQVLSRWLILNANRRAVHWVSEGTIIFERNDYLTDLKKQLRNFPETERCLQMSLSFAKLLRRFQDGRNLFSRGNYYDAYTHVHHALHHLARLSVLEKGAHPEVVVWEQARLDDPDVYKLYEQLLLSEETLEQRIHLALIGLEHLLQSKVLSGGKYLFEVMRERDRPWTMHELMEESRLTELKVDLGSLVDFFIRKGLIRISYQRTKGLGVELVTYEPVV | not soluble
8 | MDMPVDPNEPTYCLCHQVSYGEMIGCDNPDCSIEWFHFACVGLTTKPRGKWFCPRCSQER | soluble
9 | MFRNVAELVELAESQAIPISEVMIRQEIEVTERSREAIIEQMENHLDVMEKAVRRGITEQVRSVSGLTGGDAVLLQDYLKKGNYLSSETVLDAVSKAVATNEVNAAMGTICATPTAGASGVVPGVLFGMEKRLSPTKEQKVRFLFTSGAFGFVVANNASISGAAGGCQAEVGSATGMAAAALVELAGGTPSQSAEAMAIALKNMLGLVCDPVAGLVEVPCVKRNAIGASIAITAADMALAGIQSRIPTDEVIDAMYKIGQAMPVAYKETAQGGLAATPKGRELEAKIFGVALDKK | not soluble
10 | MQEKIYQVAVGLIPGVGAATTKTLISYCGCAEQIFKTPKGKLKNIPGIGAVTVDNIYSASVLHEAESIVERAQKLDTQLLFYTDPDYPNRLKQIPDAPTLLYYKGSSALNPPKSIAIVGTRKATEYGRSVVRKLLEEIASYKPLVVSGLAYGIDIQAHRDALELGLETIGVMANGTNIIYPSVHKNTALKMLEQGGLLSEYTFDSIAEPMRFPARNRIIAGMTDATIVIEATQSGGALITAEIADSYDREVLAVPGRITDMASEGCNNLIKQNKAHALTSAADLIELLNWDITPSQQAHKHIILADLEEDELMIYAVLTDNEGIHIDELSWKSQLSMQKISSVLLEMEFKGIVKALPGKKFSLR | not soluble
11 | MGNCLKSPTSDDISLLHESQSDRASFGEGTEPDQEPPPPYQEQVPVPVYHPTPSQTRLATQLTEEEQIRIAQRIGLIQHLPKGVYDPGRDGSEKKIRECVICMMDFVYGDPIRFLPCMHIYHLDCIDDWLMRSFTCPSCMEPVDAALLSSYETN | soluble
12 | MGSDKIHHHHHHMLTWRKHGLIYSPQAHPPLIGGAGYAQSPQALVFDDFVRIYFSTRELDDKNNKFISRVSYVDMDKNLQEILKVSAAPVIAHAELGTFDEHGIFPFNVLRHNGAVMAWTTGWNRRVSVSVDTSIGLAISHDGGDTFQRHATGPVMSASLHEPYLVGDAFVQHIEGRFHMWYIYGVGWKRQQSDSPPDRIYKIAHAVSDDGIDWVRESKPIIADLLGDDECQALPTVIKVGNRYHMIFCYRECFDFRLGSGRGYRLGYAWSDDLVTWHRDDTQVPAVSESGEWDSEMQCYPHLFQCDEKVYLLYNGNAFGKEGFGLAELTACSE | not soluble
13 | MGHHHHHHSHMSYKPNLAAHMPAAALNAAGSVHSPSTSMATSSQYRQLLSDYGPPSLGYTQGTGNSQVPQSKYAELLAIIEELGKEIRPTYAGSKSAMERLKRGIIHARGLVRECLAETERNARS | soluble
14 | MKAIIISIGDELLKGHRVNTNAPFIARELGNIGIPVTRIITCSDDPQAIRDSVTLALTEAEAVFVTGGLGPTNDDRTRDAVRALLGRGLALDEPSFERIADYFRRRNRPVTEVMKDQAMVIEGSIAIPNTKGTAPGMIIECAPRFAGRHLVLMPGVPAEMEAMMRLTVVPFFAPLSGAFIRHTPVMTMGIGETQLADMIVEVEDSLPSGTTLAYLPHAAGVSLMVSTSGA | not soluble
15 | MIIEFEEKLLDLIDAQVVNASSDELFAGGYLRGHISLSAAQCEEEGITELDVLKQRIEQSLEAARSELSPADRAIVAELWQQLAAQA | not soluble
16 | MSLHLSKGFSNMIGVVLPTVNLPYFAELIAGIADAAAESGVHLSLFQTNYEVQKEIFALSQLKQRQVDGLIFCSKALADEKLMEWEGPILLCQNSDNARFPTISIPHQEAFRNGLDYLIAKGHKKIAICLARKKGMNSHFRIKAYKEALEEIGEAFREDWVIEKAITINDGKALFHKWNTWKEKPTAIFVANDQVSAGLFLEAKNQRVSVPDELAILSVDNHEISQALGITTIDIQTREMGKQAFAILEKRIQGQPIERKVLDYRLIERSTVEGHHHHHH | soluble
17 | MKAPELQIQQWFNSATDLTLADLRGKVIVIEAFQMLCPGCVMHGIPLAQKVRAAFPEDKVAVLGLHTVFEHHEAMTPISLKAFLHEYRIKFPVGVDQPGDGAMPRTMAAYQMRGTPSLLLIDKAGDLRAHHFGDVSELLLGAEIATLLGEAAPSVQKQAGTPQGDANCDNDGCTV | not soluble
18 | MGHHHHHHGGHMSLAAQELLRDAFTRLIEHVDELTDGLTDQLACYRPTPSANSIAWLLWHSARVQDIQVAHVAGVEEVWTRDGWVDRFGLDLPRHDTGYGHRPEDVAKVRAPADLLSGYYHAVHKLTLEYIAGMTADELSRVVDTSWNPPVTVSARLVSIVDDCAQHLGQAAYLRGIAEGGS | soluble
19 | MALLRIFDAHCDALLKLWEDPAREYTDDPAIEANAVRLMEGGVRAQCFAIFVGPNIPFDQKFQVALQQAELFHEKILKKHPQFSFIERWDDLLTLDADQIGAILTLEGADPFGDDPTKLKTLYRLGVRSLGLTWNQANLCADGVGEPRGGGLTEWGKAVVSLNNEHHVLTDVSHLSERGFWDVIEYAQFPVATHSNAKAICKHRRNLTDAQLKALIEAGGFIGIVFHPHFLTGTDDASIDDVMKHIEHICSLGGQKHVGFGSNFDGIPCFVDGLEHAGRFQWFMDELLKRYDEELVRGFAWDNFLKATPISYVEGHHHHHH | soluble
20 | MSLYSTPLKKRIDYDRETFTASASLGGNRLRNRPRDDQNNGKPNLSSRSFLSERKTRKDVLNKYGEAGNTIESELRDVTTHVKISGLTSSEPLQLASEFVQDLSFRDRNTPILDNPDYYSKGLDYNFSDEVGGLGAFTPFQRQQVTNIPDEVLSQVSNTEIKSDMGIFLELNYCWITSDNKLILWNINNSSEYHCIDEIEHTILKVKLVKPSPNTFVSSVENLLIVATLFDIYILTISFNDRTHELNIFNTGLKVNVTGFNVSNIISYERTGQIFFTGATDGVNVWELQYNCSENLFNSKSNKICLTKSNLANLLPTKLIPSIPGGKLIQKVLEGDAGTEEETISQLEVDQSRGVLHTLSTKSIVRSYLITSNGLVGPVLIDAAHIRRGMNALGVKNSPLLSNRAFKIAKIVSISMCENNDLFLAVITTTGVRLYFKGSISRRSIGSLKLDSVKFPPTSISSSLEQNKSFIIGHHPLNTHDTGPLSTQKASSTYINTTCASTIISPGIYFTCVRKRANSGELSKGITNKALLENKEEHKLYVSAPDYGILKNYGKEGHHHHHH | soluble
21 | MLLTGKLYKEEKQKFYDAQNGKCLICQRELNPDVQANHLDHDHELNGPKAGKVRGLLCNLCDAAEGQMKHKFNRSGLKGQGVDYLEWLENLLTYLKSDYTQNNIHPNFVGDKSKEFSRLGKEEMMAEMLQRGFEYNESDTKTQLIASFKKQLRKSLK | soluble
22 | MTVLAQLYYKYGTMNSGKTIEILKVAHNYEEQGKPVVIMTSSLDTRDGFGVVASRIGMRREAVTITDDMDIFAYIENMFKKPYCILIDESQFLSQKNVYDLARIVDELDVPVMAFGLKNDFQNHLFEGSRELLLLADKIEEIKTICQFCSKKATMVLRTENGRPVYKGNQIQIGGNETYIPVCRRHYFHPPIKALEHHHHHH | not soluble
